50 molecules from patent publication US20090214427A1 (LICENTIA, published 2009) can be followed below.

No end group written: not given here.

What is called inhibition is the change of the read-out against control, counted positive when it falls.

B1: GPARG (SEQ ID NO:30) (peptide)
peptide: GPARG-OH
B2: GPARRG (SEQ ID NO:29) (peptide)
peptide: GPARRG-OH
B3: GAARRPFPAASG (SEQ ID NO:13) (peptide)
peptide: GAARRPFPAASG
B4: ARFKVWWG (SEQ ID NO:75) (peptide)
peptide: ARFKVWWG
B5: RRPAP (SEQ ID NO:39) (peptide)
peptide: RRPAP
B6: GFFVTAG as printed in Table 6 (SEQ ID NO:36) (peptide)
peptide: GFPVTAG-OH
B7: Ac-SRFKVWWG (SEQ ID NO:74) (peptide)
peptide: Ac-SRFKVWWG
B8: GFFPVTAG as printed in Table 6 (SEQ ID NO:35) (peptide)
peptide: GPFPVTAG-OH
B9: GAARRPFPAPSG (SEQ ID NO:7) (peptide)
peptide: GAARRPFPAPSG
B10: GFARRFG as printed in Table 6 (SEQ ID NO:28) (peptide)
peptide: GPARRPG-OH
B11: RRPFP (SEQ ID NO:40) (peptide)
peptide: RRPFP
B12: GPARRPFG (SEQ ID NO:27) (peptide)
peptide: GPARRPFG-OH
B13: GAARAPFPAPSG (SEQ ID NO:9) (peptide)
peptide: GAARAPFPAPSG
B14: GPARRPFPVAAG (SEQ ID NO:23) (peptide)
peptide: GPARRPFPVAAG-OH
B15: GPARRPFPATAG (SEQ ID NO:22) (peptide)
peptide: GPARRPFPATAG-OH
B16: Ac-ARFKVWWGG (SEQ ID NO:77) (peptide)
peptide: Ac-ARFKVWWGG
B17: Ac-ARFKVWWG (SEQ ID NO:76) (peptide)
peptide: Ac-ARFKVWWG
B18: SRFKVWG (SEQ ID NO:70) (peptide)
peptide: SRFKVWG-OH
B19: GPARRAFPVTAG (SEQ ID NO:19) (peptide)
peptide: GPARRAFPVTAG-OH
B20: GPARRPFPVTG (SEQ ID NO:24) (peptide)
peptide: GPARRPFPVTG-OH
B21: FKVWWAAG (SEQ ID NO:66) (peptide)
peptide: FKVWWAAG
B22: RFKVWWAAG (SEQ ID NO:65) (peptide)
peptide: RFKVWWAAG-OH
B23: SRFKVG (SEQ ID NO:71) (peptide)
peptide: SRFKVG-OH
B24: ARFKVWWA (SEQ ID NO:79) (peptide)
peptide: ARFKVWWA
B25: … as printed in Table 6 (SEQ ID NO:33) (peptide)
peptide: GRRPFPVTAG-OH
B26: GAAARPFPAPSG (SEQ ID NO:8) (peptide)
peptide: GAAARPFPAPSG
B27: GVTAG (SEQ ID NO:38) (peptide)
peptide: GVTAG-OH
B28: SRFKVWWAG (SEQ ID NO:68) (peptide)
peptide: SRFKVWWAG-OH
B29: GPARRPAPVTAG (SEQ ID NO:20) (peptide)
peptide: GPARRPAPVTAG-OH
B30: ARFKVWWGG (SEQ ID NO:78) (peptide)
peptide: ARFKVWWGG
B31: Ac-ARFKVWWAA (SEQ ID NO:81) (peptide)
peptide: Ac-ARFKVWWAA
B32: GPARRPFPVG (SEQ ID NO:25) (peptide)
peptide: GPARRPFPVG-OH
B33: Ac-ARFKVWWA (SEQ ID NO:80) (peptide)
peptide: Ac-ARFKVWWA
B34: GAARRPFPAPAG (SEQ ID NO:14) (peptide)
peptide: GAARRPFPAPAG
B35: WWAAG (SEQ ID NO:67) (peptide)
peptide: WWAAG-OH
B36: GAARRPAPAPSG (SEQ ID NO:11) (peptide)
peptide: GAARRPAPAPSG
B37: RRPFG (SEQ ID NO:42) (peptide)
peptide: RRPFG-OH
B38: GFVTAG as printed in Table 6 (SEQ ID NO:37) (peptide)
peptide: GPVTAG-OH
B39: GAARRPFPVTAG (SEQ ID NO:16) (peptide)
peptide: GAARRPFPVTAG
B40: GPARRPFAVTAG (SEQ ID NO:21) (peptide)
peptide: GPARRPFAVTAG-OH
B41: GAARRAFPAPSG (SEQ ID NO:10) (peptide)
peptide: GAARRAFPAPSG
B42: GPAARPFPVTAG (SEQ ID NO:17) (peptide)
peptide: GPAARPFPVTAG-OH
B43: SRFKG (SEQ ID NO:72) (peptide)
peptide: SRFKG-OH
B44: GPARRPFPG (SEQ ID NO:26) (peptide)
peptide: GPARRPFPG-OH
B45: ARFKVWWA(CONH2) (SEQ ID NO:82) (peptide)
peptide: ARFKVWWA-NH2
B46: GARRPFPVTAG (SEQ ID NO:32) (peptide)
peptide: GARRPFPVTAG
B47: GPARAPFPVTAG (SEQ ID NO:18) (peptide)
peptide: GPARAPFPVTAG-OH
B48: RRPAG (SEQ ID NO:41) (peptide)
peptide: RRPAG-OH
B49: GAARRPFAAPSG (SEQ ID NO:12) (peptide)
peptide: GAARRPFAAPSG
B50: … as printed in Table 6 (SEQ ID NO:34) (peptide)
peptide: GRPFPVTAG-OH

The assay concerns the target recombinant wild-type (wt) human kallikrein 2 (human, UniProt P20151 25-261). In words: cell-based or functional assay.
Turning to B1, the inhibition came to 0%.
As to B2, the inhibition amounted to 8%.
The result for B3 reads 69%; that for B4, 94%; that for B5, 0%.
The result for B6 reads 0%; that for B7, 86%; that for B8, 0%.
The result for B9 reads 77%; that for B10, 4%.
On to B11, for which the inhibition turned out to be 0%.
The result for B12 reads 0%; that for B13, 0%.
Regarding B14, the inhibition was 45%.
In the case of B15 it was 58%; in that of B16, 92%.
The result for B17 reads 93%; that for B18, 8%.
The result for B19 reads 0%.
With B20, the inhibition came to 48%.
The result for B21 reads 0%; that for B22, 22%.
In the case of B23 it was 7%.
The result for B24 reads 95%.
On to B25, for which the inhibition came out at 2%.
The result for B26 reads 0%.
Turning to B27, the inhibition worked out at 0%.
On to B28, for which the inhibition came to 80%.
On to B29, for which the inhibition worked out at 49%.
In the case of B30 it was 93%; in that of B31, 93%.
Take B32: the inhibition is 37%.
In the case of B33 it was 94%; in that of B34, 78%.
In the case of B35 it was 0%; in that of B36, 75%.
In the case of B37 it was 0%; in that of B38, 0%; in that of B39, 61%.
As to B40, the inhibition was determined as 17%.
In the case of B41, the inhibition came out at 0%.
The result for B42 reads 0%; that for B43, 0%.
In the case of B44 it was 33%; in that of B45, 86%; in that of B46, 27%.
Consider B47, for which the inhibition is 0%.
In the case of B48 it was 0%; in that of B49, 24%.
Take B50: the inhibition came out at 0%.
